Source: patent US20040110170A1, “Cloning and characterization of calcitonin gene related peptide receptors” (priority 2002, published 2004)
Ends that are not written are not given here.

What was measured:
JPr-CGRP receptor = target: T1, JPr-CGRP receptor (Rattus norvegicus, UniProt O89039); assay: Adenylate Cyclase Stimulation assay (cAMP), NIH/3T3 cells stably expressing JPr-CGRP receptor; type: cell-based; settings: assay not specified
T1 construct: expressed in transfected cells; pCDL-Srα vector)
T1 sequence (O89039 whole entry): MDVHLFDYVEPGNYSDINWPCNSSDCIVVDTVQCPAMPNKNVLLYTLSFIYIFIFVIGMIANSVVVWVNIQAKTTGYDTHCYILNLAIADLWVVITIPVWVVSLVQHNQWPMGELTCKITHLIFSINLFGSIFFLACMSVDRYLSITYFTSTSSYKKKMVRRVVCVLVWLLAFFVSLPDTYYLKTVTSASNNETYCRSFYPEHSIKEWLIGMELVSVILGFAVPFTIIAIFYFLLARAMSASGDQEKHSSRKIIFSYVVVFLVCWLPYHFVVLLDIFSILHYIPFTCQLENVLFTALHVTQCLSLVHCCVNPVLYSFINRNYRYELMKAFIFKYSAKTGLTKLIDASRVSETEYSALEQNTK
Method: The cells were washed with 1 ml of a nutrient deficient DMEM solution (Gibco-BRL, Gaithersburg, Md.) to remove excess radioisotope and incubated for 10 minutes (37° Celsius). […] Peptide was added in 5 μL aliquots to 21 of the 24 wells with three receiving no peptide to serve as a baseline for stimulation. The remaining 21 wells were incubated at 37° Celsius with increasing concentrations of the indicated peptide and the response was measured.

[1] = target: Skb-CGRP receptor (previously reported human CGRP type 1 receptor, Skb-CGRP-R) (human) (UniProt Q16602); assay: Radioligand binding inhibition; unlabelled CGRP against 50 pM 125I-CGRP on stably transfected NIH/3T3 cells
Skb-CGRP receptor (previously reported human CGRP type 1 receptor, Skb-CGRP-R) (human), sequence (Q16602 23-461): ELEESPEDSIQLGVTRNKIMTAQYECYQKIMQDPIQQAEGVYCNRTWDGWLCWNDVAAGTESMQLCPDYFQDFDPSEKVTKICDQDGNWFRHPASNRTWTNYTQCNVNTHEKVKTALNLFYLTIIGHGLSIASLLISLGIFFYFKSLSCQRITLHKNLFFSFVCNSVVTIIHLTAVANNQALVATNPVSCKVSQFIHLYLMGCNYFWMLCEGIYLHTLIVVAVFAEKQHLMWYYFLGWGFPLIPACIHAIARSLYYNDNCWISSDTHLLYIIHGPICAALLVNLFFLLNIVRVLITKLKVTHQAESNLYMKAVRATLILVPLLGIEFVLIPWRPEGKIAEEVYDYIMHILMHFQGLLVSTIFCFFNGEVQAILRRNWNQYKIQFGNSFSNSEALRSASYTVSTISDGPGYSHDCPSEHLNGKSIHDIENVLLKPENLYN

[2] = target: JPr-CGRP receptor (rat CGRP receptor, JPr-CGRP-R) (rat) (UniProt O89039); assay: as above
JPr-CGRP receptor (rat CGRP receptor, JPr-CGRP-R) (rat), sequence (O89039 whole entry): as the sequence (O89039 whole entry) above

[3] = system: vector control transfected HEK 293 cells; settings: cited from earlier work

Substance | response of the JPr-CGRP receptor to related peptides (JPr-CGRP receptor) | also measured
Calcitonin | shows response | 
Calcitonin Gene Related Peptide (CGRP) |  | IC50 [1]: 0.501 nM; IC50 [2]: 0.0398 nM
Amylin: peptide related to CGRP, tested on the receptor (KCNTATCATQRLANFLVHSSNNFGAILSSTNVGSNTY; not fully specified (C-terminus, bridges); cysteine pairing not given here; UniProt P10997 34-70, looked up) | shows response | 
Adrenomedullin: peptide related to CGRP | shows response | 
human Calcitonin: human Calcitonin, has cross reactivity with the CGRP receptor (CGNLSTCMLGTYTQDFNKFHTFPQTAIGVGAP; not fully specified (C-terminus, bridges); ends and bridges not checked; UniProt P01258 85-116, looked up) |  | cAMP accumulation as % of the maximum cAMP induced by CGRP in Skb-CGRP-R transfected cells [3]: 75%
